Data from patent US20030220245A1.
No end group written: not given here.

T1: GCY-DLys-N-DArg-DCG (plasmin stable peptide)
T1 sequence: GCYKNRDCG

T2: GCYKNRDCG (plasmin sensitive peptide)
T2 sequence: GCYKNRDCG


Columns and labels:
[1] = system: T1, GCY-DLys-N-DArg-DCG (plasmin stable peptide)
[2] = system: T2, GCYKNRDCG (plasmin sensitive peptide)
[3] = target: receptors that recognize the sequence GRGDSPG; test: cell-based or functional assay

Sequence of plasmin (P00747 20-580): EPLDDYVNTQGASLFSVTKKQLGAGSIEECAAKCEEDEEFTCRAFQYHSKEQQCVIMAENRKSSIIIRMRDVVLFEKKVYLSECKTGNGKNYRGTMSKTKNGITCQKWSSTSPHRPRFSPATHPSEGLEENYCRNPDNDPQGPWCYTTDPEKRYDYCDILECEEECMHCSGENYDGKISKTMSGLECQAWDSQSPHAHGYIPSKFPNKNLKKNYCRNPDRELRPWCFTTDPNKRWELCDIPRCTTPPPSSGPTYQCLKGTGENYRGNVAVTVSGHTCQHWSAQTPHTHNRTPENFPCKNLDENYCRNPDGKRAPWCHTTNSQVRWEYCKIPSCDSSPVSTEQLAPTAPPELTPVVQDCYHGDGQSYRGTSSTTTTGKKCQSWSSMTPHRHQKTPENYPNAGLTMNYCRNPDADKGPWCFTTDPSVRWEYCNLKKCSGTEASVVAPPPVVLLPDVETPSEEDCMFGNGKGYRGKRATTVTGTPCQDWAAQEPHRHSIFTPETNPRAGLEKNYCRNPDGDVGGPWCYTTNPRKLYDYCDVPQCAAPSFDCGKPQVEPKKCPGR
Sequence of plasmin (P00747 581-810): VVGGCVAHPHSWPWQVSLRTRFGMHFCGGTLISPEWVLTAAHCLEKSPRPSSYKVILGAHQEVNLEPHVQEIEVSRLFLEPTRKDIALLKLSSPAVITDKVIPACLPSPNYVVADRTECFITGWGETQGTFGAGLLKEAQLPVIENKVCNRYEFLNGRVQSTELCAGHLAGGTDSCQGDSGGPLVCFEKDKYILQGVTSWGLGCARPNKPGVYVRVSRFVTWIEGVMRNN

Row | Molecule | degradation of PEG-triacrylate/peptide gel by 0.2 units of plasmin in 200 microliters, 37 C [1] | degradation of PEG-triacrylate/peptide gel by 0.2 units of plasmin in 200 microliters, 37 C [2] | peptide degradation by plasmin, analytical C18 HPLC, plasmin at 1/1000 the peptide concentration, 37 C [2] | adhesion and spreading of human foreskin fibroblasts on conjugate addition PEG gels carrying the peptide on one of every 12 acrylates, 6 hours after seeding [3] [%]
1 | plasmin | The DLys, DArg configuration gel has not been shown to degrade by plasminolysis. | The L-Lys, L-Arg configuration of the peptide was readily degraded by the enzyme. In one case, after 6 hours no gel remained. | most of the GCYKNRDCG peptide was degraded in approximately one hour at 37 °C | 
2 | GC(PEG acrylate)GYGRGDSPG [… (RGD-containing adhesion peptide)] |  |  |  | 50
